Starred links: 1 amine or outer side, 2 acyl side, 3 side chain; linkers in the order of their positions; H or OH if unused. Non-standard residues stand in square brackets, D forms with d. Groups on a side chain read outwards from the residue. No end group written: not given here. *: point of attachment. C20 diacid = O=C(O)CCCCCCCCCCCCCCCCCCC(=O)*; γGlu = O=C(O)[C@H](CCC(=O)[*:2])N[*:1]; AEEA = NCCOCCOCC(=O)O; Aib = CC(C)(N)C(=O)O
Columns and labels:
hGLP-1R = molecular target: T1, hGLP-1R (human, UniProt P43220); assay: competition, [125I]-GLP-1 radioligand
T1 chain: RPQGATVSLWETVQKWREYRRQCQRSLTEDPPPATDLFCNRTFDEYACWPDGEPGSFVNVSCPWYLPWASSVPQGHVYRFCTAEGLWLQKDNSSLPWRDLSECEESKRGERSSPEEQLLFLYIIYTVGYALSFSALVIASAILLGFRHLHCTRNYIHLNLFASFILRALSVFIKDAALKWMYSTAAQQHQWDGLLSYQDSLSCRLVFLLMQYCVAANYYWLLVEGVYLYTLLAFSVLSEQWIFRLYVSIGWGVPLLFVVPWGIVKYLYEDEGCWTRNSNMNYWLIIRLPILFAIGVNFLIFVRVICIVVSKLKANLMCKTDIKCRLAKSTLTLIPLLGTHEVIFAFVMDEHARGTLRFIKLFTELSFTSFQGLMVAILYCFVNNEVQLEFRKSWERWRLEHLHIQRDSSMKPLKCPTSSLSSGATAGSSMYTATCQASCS

hGIPR = molecular target: T2, hGIPR (human, UniProt P48546); assay: competition, [125I]-GIP radioligand
T2 chain: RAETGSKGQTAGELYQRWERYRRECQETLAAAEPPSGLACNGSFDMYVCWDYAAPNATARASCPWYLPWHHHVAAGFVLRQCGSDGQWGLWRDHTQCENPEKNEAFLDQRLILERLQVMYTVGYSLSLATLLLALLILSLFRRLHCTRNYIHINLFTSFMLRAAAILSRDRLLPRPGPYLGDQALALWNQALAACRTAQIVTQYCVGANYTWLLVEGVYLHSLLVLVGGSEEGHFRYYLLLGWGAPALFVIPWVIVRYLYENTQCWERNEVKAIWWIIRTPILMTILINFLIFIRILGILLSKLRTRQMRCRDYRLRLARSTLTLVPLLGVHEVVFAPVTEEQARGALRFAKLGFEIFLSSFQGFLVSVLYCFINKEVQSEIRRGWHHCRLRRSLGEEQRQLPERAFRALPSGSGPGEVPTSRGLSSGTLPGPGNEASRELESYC

hGCGR = hGCGR (human, UniProt P47871); assay: competition, [125I]-glucagon radioligand
hGCGR, sequence (P47871 26-477): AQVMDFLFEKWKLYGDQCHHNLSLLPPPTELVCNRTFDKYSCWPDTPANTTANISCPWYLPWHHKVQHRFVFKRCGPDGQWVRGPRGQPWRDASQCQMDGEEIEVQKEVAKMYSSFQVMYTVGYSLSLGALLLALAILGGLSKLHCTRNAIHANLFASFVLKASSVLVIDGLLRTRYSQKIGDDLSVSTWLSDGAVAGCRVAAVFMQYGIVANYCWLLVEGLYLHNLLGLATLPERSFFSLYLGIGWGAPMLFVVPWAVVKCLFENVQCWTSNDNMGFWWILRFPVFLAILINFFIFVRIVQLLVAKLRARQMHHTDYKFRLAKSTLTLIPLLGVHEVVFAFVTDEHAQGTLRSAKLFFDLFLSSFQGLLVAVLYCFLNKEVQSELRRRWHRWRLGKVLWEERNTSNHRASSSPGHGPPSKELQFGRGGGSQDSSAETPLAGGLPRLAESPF

B1: Example 1 (peptide)
chain: Y[Aib]EGTFTSDYSI[Aib]LDKIAQK([AEEA-AEEA-γGlu-C20 diacid])AFVQWLIAGGP-OH
modifications: N-terminus assumed
SMILES: CC[C@H](C)[C@H](NC(=O)[C@H](CC(C)C)NC(=O)[C@H](Cc1c[nH]c2ccccc12)NC(=O)[C@H](CCC(N)=O)NC(=O)[C@@H](NC(=O)[C@H](Cc1ccccc1)NC(=O)[C@H](C)NC(=O)[C@H](CCCCNC(=O)COCCOCCNC(=O)COCCOCCNC(=O)CC[C@H](NC(=O)CCCCCCCCCCCCCCCCCCC(=O)O)C(=O)O)NC(=O)[C@H](CCC(N)=O)NC(=O)[C@H](C)NC(=O)[C@@H](NC(=O)[C@H](CCCCN)NC(=O)[C@H](CC(=O)O)NC(=O)[C@H](CC(C)C)NC(=O)C(C)(C)NC(=O)[C@@H](NC(=O)[C@H](CO)NC(=O)[C@H](Cc1ccc(O)cc1)NC(=O)[C@H](CC(=O)O)NC(=O)[C@H](CO)NC(=O)[C@@H](NC(=O)[C@H](Cc1ccccc1)NC(=O)[C@@H](NC(=O)CNC(=O)[C@H](CCC(=O)O)NC(=O)C(C)(C)NC(=O)[C@@H](N)Cc1ccc(O)cc1)[C@@H](C)O)[C@@H](C)O)[C@@H](C)CC)[C@@H](C)CC)C(C)C)C(=O)N[C@@H](C)C(=O)NCC(=O)NCC(=O)N1CCC[C@H]1C(=O)O
hGLP-1R
  Ki: 10.9 nM
hGIPR
  Ki: 0.32 nM
hGCGR
  Ki: > 240 nM

Reference: patent publication US20260315572 (published 2026)
